Laboratory results taken from patent US20070131547A1.

Experiments:
Assay in all cases: cell-based or functional assay
[1] = molecular target: phoDp-Jun (diaphorase derived from Pyrococcus horikoshii, Jun association site fused at the C-terminal side) (Pyrococcus horikoshii)
[2] = molecular target: ppuDp-Jun (diaphorase derived from Pseudomonas putida, Jun association site fused at the C-terminal side) (Pseudomonas putida)
[3] = molecular target: goxDp-Dzip2 (diaphorase derived from Gluconobacter oxydans, Dzip2 association site fused at the C-terminal side) (Gluconobacter oxydans)
[4] = molecular target: T1, ecoISO-Dzip2 (xylose isomerase derived from Escherichia coli, Dzip2 association site fused at the C-terminal side) (Escherichia coli) (UniProt B1X8I1)
T1 sequence: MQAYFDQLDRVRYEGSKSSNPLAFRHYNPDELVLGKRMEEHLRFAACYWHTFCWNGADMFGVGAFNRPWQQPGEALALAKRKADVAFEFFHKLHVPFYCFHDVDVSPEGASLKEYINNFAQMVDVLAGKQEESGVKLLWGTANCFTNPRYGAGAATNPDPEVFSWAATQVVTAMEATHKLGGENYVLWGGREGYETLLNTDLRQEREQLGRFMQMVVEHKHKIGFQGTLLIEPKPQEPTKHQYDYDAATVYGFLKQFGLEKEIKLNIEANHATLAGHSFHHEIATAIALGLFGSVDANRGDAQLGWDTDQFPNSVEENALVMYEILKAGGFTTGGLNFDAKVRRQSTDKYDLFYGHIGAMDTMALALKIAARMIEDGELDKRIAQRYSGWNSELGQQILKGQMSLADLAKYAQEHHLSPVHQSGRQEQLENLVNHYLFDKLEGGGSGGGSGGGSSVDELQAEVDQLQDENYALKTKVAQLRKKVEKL

[5] = molecular target: T2, goxALDH-Dzip2 (aldehyde dehydrogenase derived from Gluconobacter oxydans, Dzip2 association site fused at the C-terminal side) (Gluconobacter oxydans)
T2 sequence: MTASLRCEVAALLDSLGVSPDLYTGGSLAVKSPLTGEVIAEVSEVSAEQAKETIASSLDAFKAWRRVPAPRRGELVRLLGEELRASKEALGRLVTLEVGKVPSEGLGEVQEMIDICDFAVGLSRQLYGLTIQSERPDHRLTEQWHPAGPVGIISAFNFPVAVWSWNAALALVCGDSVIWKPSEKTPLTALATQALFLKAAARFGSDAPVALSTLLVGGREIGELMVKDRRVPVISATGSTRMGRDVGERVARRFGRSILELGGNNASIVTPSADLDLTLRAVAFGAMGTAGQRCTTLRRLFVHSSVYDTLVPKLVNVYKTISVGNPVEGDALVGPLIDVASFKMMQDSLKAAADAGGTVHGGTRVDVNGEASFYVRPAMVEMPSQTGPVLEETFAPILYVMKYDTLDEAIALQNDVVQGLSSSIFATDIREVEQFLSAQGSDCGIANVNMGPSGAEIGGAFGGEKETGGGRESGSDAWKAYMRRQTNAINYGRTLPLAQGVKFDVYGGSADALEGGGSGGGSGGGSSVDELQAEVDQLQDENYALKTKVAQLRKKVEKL

B1: His-pfuGDH-Fos (glucose dehydrogenase derived from Pyrococcus furiosus, His tag, Fos association site fused at the C-terminal side) (enzyme)
chain: MGSSHHHHHHSQDPNILITASSRGIGFNVAKELLKKGHRVVISSSNEKNLEKALEELKEYEKVYPIKADLSKKEEIKNMVEKAWEILGKIDVLVWNAPNVKCEPCMIHELDYEDWVEGALLHIIAPGYLTTLLLNKWLKNNTRGIIIYLSSASVLEPMPPLLLADSTRAGLIQLAKGISRAYGKRGIRAYTVLLGSFDTPGARENLRRLAEKRGVDPEELWKKEVIERTPLQRTGKWEELGELIEFLLSDNAEYMLGSTILFDGAMTRSVLLKLGGGSGGGSLTDTLQAETDQLEDKKSALQTEIANLLKEKEKLEFILAAY
maximum electric power (glucose fuel cell) [1]: 126 µW/cm^2
shortcircuit current density (glucose fuel cell) [1]: 1320 µA/cm^2

B2: His-busGDH-Fos (glucose dehydrogenase derived from Bacillus subtilis, His tag, Fos association site fused at the C-terminal side) (enzyme)
chain: MGSSHHHHHHSQDPYPDLKGKVVAITGAASGLGKAMAIRFGKEQAKVVINYYSNKQDPNEVKEEVIKAGGEAVVVQGDVTKEEDVKNIVQTAIKEFGTLDIMINNAGLENPVPSHEMPLKDWDKVIGTNLTGAFLGSREAIKYFVENDIKGNVINMSSVHEVIPWPLFVHYAASKGGIKLMTETLALEYAPKGIRVNNIGPGAINTPINAEKFADPKQKADVESMIPMGYIGEPEEIAAVAAWLASKEASYVTGITLFADGGMTQYPSFQAGRGKLGGGSGGGSLTDTLQAETDQLEDKKSALQTEIANLLKEKEKLEFILAAY
maximum electric power (glucose fuel cell) [2]: 101 µW/cm^2
shortcircuit current density (glucose fuel cell) [2]: 988 µA/cm^2

B3: His-ppuMDH-Dzip1 (malic acid dehydrogenase derived from Pseudomonas putida, His tag, Dzip1 association site fused at the C-terminal side) (enzyme)
chain: MGSSHHHHHHSQDPSDLKTAALEYHAQPRPGKLSVELSKPTATARDLALAYSPGVAEPVREIGRDPELAYKYTGKGNLVAVISDGTAILGLGDLGPLASKPVMEGKGVLFKRFAGIDVFDIEVESESPQAFIDTVRRISITFGGINLEDIKAPECFEIERTLIEQCDIPVFHDDQHGTAIVTAAGMINALEIAGKKLEEAKIVCLGAGAAAISCMKLLVSMGAKVENIFMIDRSGVIHAGRDDLNQYKAQFAHATDKRTLADALDGADVFVGLSGPNLLSPEGLKSMAANPIVFACSNPDPEISPELAHATRNDVIMATGRSDYPNQVNNVLGFPFIFRGALDVRAKRINEEMKIAAAIALKDLAKLPVPKEVCEAYGVEGLEFGREYIIPKPLDARLITVVSDAVAKAAIESGVATLPYPKHYPLTSVDEVFNGKLGGGSGGGSGGGSTVAQLEEKVKTLRAQNYELKSRVQRLREQVAQLA
maximum electric power (malic acid fuel cell) [3]: 99 µW/cm^2
shortcircuit current density (malic acid fuel cell) [3]: 1030 µA/cm^2

B4: His-sceADH-Fos (alcohol dehydrogenase derived from Saccharomyces cerevisiae, His tag, Fos association site fused at the C-terminal side) (enzyme)
chain: MGSSHHHHHHSQDPPSQVIPEKQKAIVFYETDGKLEYKDVTVPEPKPNEILVHVKYSGVCHSDLHAWHGDWPFQLKFPLIGGHEGAGVVVKLGSNVKGWKVGDFAGIKWLNGTCMSCEYCEVGNESQCPYLDGTGFTHDGTFQEYATADAVQAAHIPPNVNLAEVAPILCAGITVYKALKRANVIPGQWVTISGACGGLGSLAIQYALAMGYRVIGIDGGNAKRKLFEQLGGEIFIDFTEEKDIVGAIIKATNGGSHGVINVSVSEAAIEASTRYCRPNGTVVLVGMPAHAYCNSDVFNQVVKSISIVGSCVGNRADTREALDFFARGLIKSPIHLAGLSDVPEIFAKMEKGEIVGRYVVETSKKLGGGSGGGSLTDTLQAETDQLEDKKSALQTEIANLLKEKEKLEFILAAY
maximum electric power (alcohol fuel cell) [2]: 80 µW/cm^2
shortcircuit current density (alcohol fuel cell) [2]: 821 µA/cm^2

B5: His-busGDH-Dzip1 (glucose dehydrogenase derived from Bacillus subtilis, His tag, Dzip1 association site fused at the C-terminal side) (enzyme)
chain: MGSSHHHHHHSQDPYPDLKGKVVAITGAASGLGKAMAIRFGKEQAKVVINYYSNKQDPNEVKEEVIKAGGEAVVVQGDVTKEEDVKNIVQTAIKEFGTLDIMINNAGLENPVPSHEMPLKDWDKVIGTNLTGAFLGSREAIKYFVENDIKGNVINMSSVHEVIPWPLFVHYAASKGGIKLMTETLALEYAPKGIRVNNIGPGAINTPINAEKFADPKQKADVESMIPMGYIGEPEEIAAVAAWLASKEASYVTGITLFADGGMTQYPSFQAGRGKLGGGSGGGSGGGSTVAQLEEKVKTLRAQNYELKSRVQRLREQVAQLA
maximum electric power (fructose fuel cell) [4]: 101 µW/cm^2
shortcircuit current density (fructose fuel cell) [4]: 1110 µA/cm^2

B6: His-lplLDH-Dzip1 (lactic acid dehydrogenase derived from Lactobacillus plantarum, His tag, Dzip1 association site fused at the C-terminal side) (enzyme)
chain: MGSSHHHHHHSQDPSSMPNHQKVVLVGDGAVGSSYAFAMAQQGIAEEFVIVDVVKDRTKGDALDLEDAQAFTAPKKIYSGEYSDCKDADLVVITAGAPQKPGESRLDLVNKNLNILSSIVKPVVDSGFDGIFLVAANPVDILTYATWKFSGFPKDRVIGSGTSLDSSRLRVALGKQFNVDPRSVDAYIMGEHGDSEFAAYSTATIGTRPVRDVAKEQGVSDEDLAKLEDGVRNKAYDIINLKGATFYGIGTALMRISKAILRDENAVLPVGAYMDGQYGLNDIYIGTPAVIGGTGLKQIIESPLSADELKKMQDSAATLKKVLNDGLAELENKKLGGGSGGGSGGGSTVAQLEEKVKTLRAQNYELKSRVQRLREQVAQLA
maximum electric power (lactic acid fuel cell) [3]: 121 µW/cm^2
shortcircuit current density (lactic acid fuel cell) [3]: 1330 µA/cm^2

B7: His-sceADH-Dzip1 (alcohol dehydrogenase derived from Saccharomyces cerevisiae, His tag, Dzip1 association site fused at the C-terminal side) (enzyme)
chain: MGSSHHHHHHSQDPPSQVIPEKQKAIVFYETDGKLEYKDVTVPEPKPNEILVHVKYSGVCHSDLHAWHGDWPFQLKFPLIGGHEGAGVVVKLGSNVKGWKVGDFAGIKWLNGTCMSCEYCEVGNESQCPYLDGTGFTHDGTFQEYATADAVQAAHIPPNVNLAEVAPILCAGITVYKALKRANVIPGQWVTISGACGGLGSLAIQYALAMGYRVIGIDGGNAKRKLFEQLGGEIFIDFTEEKDIVGAIIKATNGGSHGVINVSVSEAAIEASTRYCRPNGTVVLVGMPAHAYCNSDVFNQVVKSISIVGSCVGNRADTREALDFFARGLIKSPIHLAGLSDVPEIFAKMEKGEIVGRYVVETSKKLGGGSGGGSGGGSTVAQLEEKVKTLRAQNYELKSRVQRLREQVAQLA
maximum electric power (alcohol fuel cell) [5]: 173 µW/cm^2
shortcircuit current density (alcohol fuel cell) [5]: 1620 µA/cm^2
